Assay results as given in the supplement of paper PMC10724198.
± gives the standard deviation of the averaged measurements.

How the values were obtained:
Saccharomyces cerevisiae [1] = test: protein stability index of tFT-peptide fusion (C-terminal peptide) (PSI (0-1 scale)); higher = more stable (slower turnover)
Procedure: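 MPS profiling in S. cerevisiae of the tFT-X12 degron library: putative degron peptides plus stable controls, 12 aa, fused to the C-terminus of a sfGFP-mCherry timer. Cells are FACS-sorted into 8 mCherry/sfGFP bins and deep-sequenced. PSI runs from 0 (unstable) to 1 (stable). Backgrounds are wild type, das1Δ and doa10Δ at 30 °C, and wild type, das1Δ, cdc34-1 and cdc53-1 at 37 °C; 2-3 technical replicates each.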

Saccharomyces cerevisiae [2] = test: as above; conditions: genetic background: wild type; temperature: 30 C
[3] = genetic background: cdc34-1, temperature: 37 C
[4] = genetic background: cdc53-1, temperature: 37 C
[5] = genetic background: das1 deletion, temperature: 30 C
[6] = genetic background: das1 deletion, temperature: 37 C
[7] = genetic background: doa10 deletion, temperature: 30 C
[8] = genetic background: wild type, temperature: 30 C
[9] = genetic background: wild type, temperature: 37 C
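Note: PSI is a weighted mean of sequencing reads over stability bins, variants kept only with over 10 reads, mCherry proximal and sfGFP distal, peptide attached via GGGS linker.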

Row | Sequence | protein stability index (Saccharomyces cerevisiae [1]; [3]) | protein stability index (Saccharomyces cerevisiae [1]; [4]) | protein stability index (Saccharomyces cerevisiae [1]; [5]) | protein stability index (Saccharomyces cerevisiae [1]; [6]) | protein stability index (Saccharomyces cerevisiae [1]; [7]) | protein stability index (Saccharomyces cerevisiae [1]; [8]) | protein stability index (Saccharomyces cerevisiae [1]; [9]) | protein stability index (Saccharomyces cerevisiae [2])
1 | APCRVPVLGLVF | 0.249 ± 0.026 | 0.265 ± 0.0055 | 0.235 ± 0.036 | 0.364 ± 0.018 | 0.204 ± 0.016 | 0.257 ± 0.013 | 0.344 ± 0.025 | 0.327 ± 0.034
2 | ARRRYEVLAVLV | 0.477 ± 0.024 | 0.522 ± 0.025 | 0.459 ± 0.041 | 0.5983 ± 0.0026 | 0.135 ± 0.0081 | 0.149 ± 0.024 | 0.149 ± 0.021 | 0.227 ± 0.0072
3 | ASTGPLAAIRVY | 0.519 ± 0.0057 | 0.622 ± 0.023 | 0.396 ± 0.028 | 0.5994 ± 0.0011 | 0.377 ± 0.035 | 0.41 ± 0.019 | 0.588 ± 0.017 | 0.495 ± 0.013
4 | AVCVGILIWATV | 0.0816 ± 0.0045 | 0.0998 ± 0.009 | 0.176 ± 0.029 | 0.275 ± 0.013 | 0.142 ± 0.018 | 0.165 ± 0.025 | 0.264 ± 0.017 | 0.314 ± 0.08
5 | AVLVSGMVVWLV | 0.643 ± 0.053 | 0.709 ± 0.015 | 0.54 ± 0.025 | 0.672 ± 0.06 | 0.32 ± 0.013 | 0.357 ± 0.0096 | 0.563 ± 0.01 | 0.436 ± 0.032
6 | AVSFTLVLCSCF | 0.474 ± 0.025 | 0.489 ± 0.029 | 0.416 ± 0.039 | 0.473 ± 0.023 | 0.389 ± 0.0073 | 0.401 ± 0.019 | 0.444 ± 0.0074 | 0.449 ± 0.023
7 | AVVLLFIPRKLL | 0.472 ± 0.042 | 0.53 ± 0.034 | 0.39 ± 0.029 | 0.568 ± 0.014 | 0.148 ± 0.011 | 0.173 ± 0.021 | 0.293 ± 0.015 | 0.245 ± 0.079
8 | AVWVAVEVEAGR | 0.468 ± 0.045 | 0.498 ± 0.025 | 0.331 ± 0.026 | 0.5447 ± 0.0044 | 0.3 ± 0.009 | 0.333 ± 0.023 | 0.53 ± 0.018 | 0.436 ± 0.026
9 | AVYEGLLIRCLI | 0.4982 ± 0.0037 | 0.5271 ± 0.0033 | 0.392 ± 0.033 | 0.5549 ± 0.0045 | 0.195 ± 0.013 | 0.251 ± 0.021 | 0.392 ± 0.0068 | 0.337 ± 0.011
10 | AYFLKRSSILVR | 0.311 ± 0.05 | 0.376 ± 0.015 | 0.241 ± 0.031 | 0.439 ± 0.011 | 0.2062 ± 0.002 | 0.217 ± 0.034 | 0.395 ± 0.011 | 0.352 ± 0.017
11 | CAIHIKIQMSVE | 0.0158 ± 0.0046 | 0.0731 ± 0.0079 | 0.0577 ± 0.019 | 0.136 ± 0.031 | 0.0457 ± 0.0051 | 0.0488 ± 0.02 | 0.128 ± 0.028 | 0.0995 ± 0.011
12 | CALCIGTYIRVV | 0.495 ± 0.01 | 0.503 ± 0.014 | 0.385 ± 0.029 | 0.552 ± 0.0098 | 0.367 ± 0.029 | 0.345 ± 0.048 | 0.501 ± 0.031 | 0.451 ± 0.029
13 | CCLFFLVVFVGW | 0.167 ± 0.0038 | 0.227 ± 0.027 | 0.191 ± 0.034 | 0.335 ± 0.027 | 0.194 ± 0.029 | 0.183 ± 0.019 | 0.274 ± 0.0075 | 0.255 ± 0.021
14 | CCNVLFRVCLFL | 0.459 ± 0.0095 | 0.526 ± 0.059 | 0.405 ± 0.042 | 0.542 ± 0.022 | 0.277 ± 0.0045 | 0.304 ± 0.025 | 0.4334 ± 0.0041 | 0.353 ± 0.048
15 | CFGVVVLGLSLD | 0.442 ± 0.0052 | 0.503 ± 0.031 | 0.352 ± 0.039 | 0.564 ± 0.015 | 0.319 ± 0.0043 | 0.354 ± 0.027 | 0.531 ± 0.021 | 0.491 ± 0.024
16 | CFLPFFIIFIFV | 0.214 ± 0.006 | 0.177 ± 0.019 | 0.209 ± 0.037 | 0.32781 ± 3.9e-05 | 0.271 ± 0.0063 | 0.197 ± 0.031 | 0.301 ± 0.015 | 0.29 ± 0.0067
17 | CFVFIGVGVLLG | 0.205 ± 0.0083 | 0.387 ± 0.025 | 0.29 ± 0.039 | 0.4436 ± 0.00094 | 0.224 ± 0.0069 | 0.234 ± 0.021 | 0.382 ± 0.014 | 0.376 ± 0.037
18 | CIEIDHVIVAIC | 0.464 ± 0.019 | 0.527 ± 0.062 | 0.348 ± 0.035 | 0.563 ± 0.03 | 0.265 ± 0.0061 | 0.334 ± 0.015 | 0.492 ± 0.018 | 0.446 ± 0.021
19 | CKFLYMALLFFW | 0.278 ± 0.0085 | 0.364 ± 0.0087 | 0.263 ± 0.032 | 0.423 ± 0.025 | 0.313 ± 0.02 | 0.288 ± 0.025 | 0.392 ± 0.00069 | 0.299 ± 0.061
20 | CLFLVFCFCVCS | 0.59488 ± 0.00049 | 0.62042 ± 0.00025 | 0.547 ± 0.031 | 0.596 ± 0.077 | 0.534 ± 0.018 | 0.512 ± 0.02 | 0.531 ± 0.032 | 0.498 ± 0.048

Row | Sequence | protein stability index (Saccharomyces cerevisiae [1]; [3]) | protein stability index (Saccharomyces cerevisiae [1]; [4]) | protein stability index (Saccharomyces cerevisiae [1]; [5]) | protein stability index (Saccharomyces cerevisiae [1]; [6]) | protein stability index (Saccharomyces cerevisiae [1]; [7]) | protein stability index (Saccharomyces cerevisiae [1]; [8]) | protein stability index (Saccharomyces cerevisiae [1]; [9]) | protein stability index (Saccharomyces cerevisiae [2])
21 | CLGFWVCCYCLV | 0.537 ± 0.037 | 0.589 ± 0.044 | 0.474 ± 0.006 | 0.592 ± 0.0093 | 0.246 ± 0.0084 | 0.281 ± 0.035 | 0.48 ± 0.017 | 0.396 ± 0.029
22 | CLHWFMVLFRVL | 0.139 ± 0.051 | 0.12 ± 0.018 | 0.296 ± 0.043 | 0.426 ± 0.0053 | 0.212 ± 0.013 | 0.122 ± 0.037 | 0.203 ± 0.015 | 0.119 ± 0.022
23 | CLLLVISSLCSG | 0.416 ± 0.047 | 0.462 ± 0.073 | 0.336 ± 0.014 | 0.529 ± 0.023 | 0.261 ± 0.0032 | 0.301 ± 0.0098 | 0.4964 ± 0.0038 | 0.403 ± 0.011
24 | CLVLCLSIPSPL | 0.607 ± 0.027 | 0.6246 ± 0.00068 | 0.497 ± 0.03 | 0.6133 ± 0.0046 | 0.501 ± 0.018 | 0.5 ± 0.015 | 0.606 ± 0.012 | 0.55 ± 0.08
25 | CLVWLVRIIVLD | 0.199 ± 0.019 | 0.268 ± 0.026 | 0.201 ± 0.031 | 0.366 ± 0.039 | 0.206 ± 0.005 | 0.195 ± 0.048 | 0.32 ± 0.025 | 0.298 ± 0.048
26 | CPFFFFSLIFLF | 0.16 ± 0.058 | 0.214 ± 0.044 | 0.228 ± 0.041 | 0.329 ± 0.011 | 0.349 ± 0.025 | 0.193 ± 0.03 | 0.284 ± 0.011 | 0.298 ± 0.017
27 | CRLFPFPLLAQL | 0.646 ± 0.034 | 0.7407 ± 0.003 | 0.628 ± 0.021 | 0.7522 ± 0.0063 | 0.425 ± 0.013 | 0.415 ± 0.025 | 0.484 ± 0.023 | 0.488 ± 0.084
28 | CSAARKDGLAPL | 0.697 ± 0.038 | 0.722 ± 0.02 | 0.649 ± 0.02 | 0.7342 ± 0.0011 | 0.633 ± 0.021 | 0.649 ± 0.029 | 0.719 ± 0.032 | 0.701 ± 0.024
29 | CSLPVLFLPYYL | 0.581 ± 0.025 | 0.5788 ± 0.0043 | 0.523 ± 0.022 | 0.625 ± 0.022 | 0.606 ± 0.014 | 0.492 ± 0.0051 | 0.572 ± 0.02 | 0.486 ± 0.14
30 | CSPVNGSAVWSI | 0.688 ± 0.032 | 0.736 ± 0.016 | 0.668 ± 0.02 | 0.7551 ± 0.00081 | 0.664 ± 0.019 | 0.667 ± 0.017 | 0.7093 ± 0.0046 | 0.699 ± 0.076
31 | CSSFFLLLFFLF | 0.351 ± 0.051 | 0.448 ± 0.018 | 0.335 ± 0.021 | 0.451 ± 0.029 | 0.301 ± 0.021 | 0.268 ± 0.01 | 0.407 ± 0.0056 | 0.311 ± 0.019
32 | CSWMRSRMWVGG | 0.33 ± 0.051 | 0.419 ± 0.03 | 0.422 ± 0.0063 | 0.36 ± 0.0087 | 0.454 ± 0.014 | 0.409 ± 0.013 | 0.346 ± 0.0053 | 0.3994 ± 0.0039
33 | CTWGRYGGIWLR | 0.0548 ± 0.007 | 0.0483 ± 0.033 | 0.136 ± 0.062 | 0.144 ± 0.013 | 0.668 ± 0.034 | 0.117 ± 0.023 | 0.11 ± 0.016 | 0.254 ± 0.058
34 | CVFCLTVFVRFL | 0.197 ± 0.0067 | 0.26 ± 0.018 | 0.192 ± 0.028 | 0.346 ± 0.015 | 0.128 ± 0.014 | 0.151 ± 0.022 | 0.2572 ± 0.0012 | 0.243 ± 0.011
35 | CVFVWFWCMTWV | 0.171 ± 0.089 | 0.164 ± 0.016 | 0.0811 ± 0.048 | 0.313 ± 0.15 | 0.105 ± 0.069 | 0.117 ± 0.11 | 0.345 ± 0.13 | 0.168 ± 0.0053
36 | CVLFLGQILCVV | 0.266 ± 0.018 | 0.328 ± 0.01 | 0.28 ± 0.033 | 0.3857 ± 0.00079 | 0.236 ± 0.011 | 0.276 ± 0.017 | 0.339 ± 0.026 | 0.332 ± 0.0076
37 | CYSRRGCIYFFF | 0.564 ± 0.029 | 0.693 ± 0.009 | 0.583 ± 0.016 | 0.698 ± 0.0099 | 0.0971 ± 0.018 | 0.101 ± 0.022 | 0.157 ± 0.0033 | 0.192 ± 0.037
38 | DHSIYYGVAKVF | 0.484 ± 0.017 | 0.652 ± 0.012 | 0.5745 ± 0.0018 | 0.694 ± 0.018 | 0.0729 ± 0.022 | 0.0841 ± 0.024 | 0.09554 ± 0.00036 | 0.163 ± 0.055
39 | DKKNCIIIYYKQ | 0.479 ± 0.053 | 0.706 ± 0.074 | 0.653 ± 0.021 | 0.6973 ± 0.0046 | 0.0802 ± 0.03 | 0.0804 ± 0.024 | 0.106 ± 0.011 | 0.147 ± 0.062
